Laboratory results from patent publication US9187525B2, “Methods of treating ophthalmic diseases using NPR-B agonists” (Shire Orphan Therapies GmbH, dated 2015).
Numbered stars: 1 amine (or outer) side, 2 acyl side, 3 side chain; on linkers, the order of the positions; unused ones are H or OH. Bridge positions count the residues as written; N and C are the ends. Square brackets hold non-standard residues; d marks the D form. Primed or numbered codes have the meaning given here. Ends that are not written are not given here. * marks the point of attachment. 5118 = (1R,2S)-ethyl 2-aminocyclohexanecarboxylate, CCOC(=O)[C@@H]1CCCC[C@@H]1N*; 5119 = (1R,2R)-ethyl 2-aminocyclohexanecarboxylate, CCOC(=O)[C@@H]1CCCC[C@H]1N*; 5116 = (1S,2R)-2-aminocyclohexanecarboxamide, NC(=O)[C@H]1CCCC[C@H]1N*; 1860″ = (1R,2R)-2-methylcyclohexanamine, C[C@@H]1CCCC[C@H]1N*; 5164 = (S)-3-amino-1-ethylazepan-2-one, CCN1CCCC[C@H](N*)C1=O; Sni = (S)-nipecotic acid, O=C([C@H]1CCCN([*:1])C1)[*:2]; 5121 = 1-propyl-butyl-amine, CCCC(CCC)N*; Octanoyl = CCCCCCCC(=O)*; 1859 = not defined here; 1906 = not defined here; 1934 = not defined here; 5163 = not defined here; 873 = not defined here; Che = not defined here; ala = not defined here; pro = not defined here; Occ = octanoic acid

T1: natriuretic peptide receptor-B (human)
T1 chain: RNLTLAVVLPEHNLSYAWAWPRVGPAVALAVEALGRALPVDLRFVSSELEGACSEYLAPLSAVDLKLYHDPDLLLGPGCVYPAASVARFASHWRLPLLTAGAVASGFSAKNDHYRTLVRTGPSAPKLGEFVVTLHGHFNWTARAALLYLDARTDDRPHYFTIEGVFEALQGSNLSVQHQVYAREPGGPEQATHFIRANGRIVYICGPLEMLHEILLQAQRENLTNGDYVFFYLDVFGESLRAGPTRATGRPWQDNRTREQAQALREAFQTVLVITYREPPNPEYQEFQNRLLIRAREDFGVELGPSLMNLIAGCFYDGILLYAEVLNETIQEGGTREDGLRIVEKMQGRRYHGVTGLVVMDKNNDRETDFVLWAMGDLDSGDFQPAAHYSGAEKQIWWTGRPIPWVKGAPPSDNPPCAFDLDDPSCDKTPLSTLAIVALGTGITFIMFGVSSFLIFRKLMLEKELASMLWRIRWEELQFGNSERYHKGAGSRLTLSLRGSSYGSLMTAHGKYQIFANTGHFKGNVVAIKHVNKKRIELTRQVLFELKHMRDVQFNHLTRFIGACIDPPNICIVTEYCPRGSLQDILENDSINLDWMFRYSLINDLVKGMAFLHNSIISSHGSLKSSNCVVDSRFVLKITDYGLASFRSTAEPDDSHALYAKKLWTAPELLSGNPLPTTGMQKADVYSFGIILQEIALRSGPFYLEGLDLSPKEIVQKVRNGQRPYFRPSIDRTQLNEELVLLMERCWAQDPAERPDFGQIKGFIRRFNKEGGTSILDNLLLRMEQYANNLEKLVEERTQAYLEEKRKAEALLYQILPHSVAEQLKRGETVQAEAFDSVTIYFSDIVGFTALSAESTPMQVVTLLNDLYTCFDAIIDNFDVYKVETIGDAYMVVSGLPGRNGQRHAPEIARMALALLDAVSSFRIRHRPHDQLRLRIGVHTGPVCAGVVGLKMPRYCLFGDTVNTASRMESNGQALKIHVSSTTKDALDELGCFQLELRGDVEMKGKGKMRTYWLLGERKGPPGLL

T2: natriuretic peptide receptor-A (Homo sapiens)
T2 chain: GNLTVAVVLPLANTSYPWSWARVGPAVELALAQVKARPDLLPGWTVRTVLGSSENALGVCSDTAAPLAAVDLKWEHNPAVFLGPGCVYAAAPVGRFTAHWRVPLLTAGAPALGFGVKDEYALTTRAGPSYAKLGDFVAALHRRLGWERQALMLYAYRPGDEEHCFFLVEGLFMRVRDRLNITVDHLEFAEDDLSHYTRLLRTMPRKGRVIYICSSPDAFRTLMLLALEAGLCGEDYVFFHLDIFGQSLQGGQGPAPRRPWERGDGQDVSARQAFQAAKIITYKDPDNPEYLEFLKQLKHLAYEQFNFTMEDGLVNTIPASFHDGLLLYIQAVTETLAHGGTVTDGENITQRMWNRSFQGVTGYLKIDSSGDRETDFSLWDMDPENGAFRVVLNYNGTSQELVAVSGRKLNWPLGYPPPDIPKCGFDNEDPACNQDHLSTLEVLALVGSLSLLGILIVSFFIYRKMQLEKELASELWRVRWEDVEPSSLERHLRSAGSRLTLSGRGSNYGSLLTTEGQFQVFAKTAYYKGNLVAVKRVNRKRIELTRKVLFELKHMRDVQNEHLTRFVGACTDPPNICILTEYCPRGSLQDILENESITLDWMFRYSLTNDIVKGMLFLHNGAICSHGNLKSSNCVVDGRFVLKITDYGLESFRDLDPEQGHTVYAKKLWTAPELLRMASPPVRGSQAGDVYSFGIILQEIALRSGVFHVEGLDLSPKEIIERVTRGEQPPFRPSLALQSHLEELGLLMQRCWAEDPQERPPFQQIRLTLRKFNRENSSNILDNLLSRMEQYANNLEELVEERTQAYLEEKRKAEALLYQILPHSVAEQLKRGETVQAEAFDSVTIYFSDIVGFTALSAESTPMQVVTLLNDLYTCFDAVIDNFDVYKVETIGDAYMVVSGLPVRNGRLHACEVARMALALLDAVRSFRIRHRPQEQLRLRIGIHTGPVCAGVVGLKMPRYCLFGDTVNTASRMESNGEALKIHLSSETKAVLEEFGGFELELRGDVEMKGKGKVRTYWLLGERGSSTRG

B1: JAL-0840 (peptide)
peptide: Octanoyl-AFGLKLDR[Che]
modifications: not fully specified (some residues); printed as Occ-ala-Phe-Gly-Leu-Lys-Leu-Asp-Arg-Che; reading uncertain
B2: JAL-0831 (peptide)
peptide: Octanoyl-[ala][ala]FGLKLDR[5118]
modifications: reading uncertain; also: printed as Occ-ala-ala-Phe-Gly-Leu-Lys-Leu-Asp-Arg-5118
B3: JAL-0825 (peptide)
peptide: Octanoyl-[ala][ala]FGLKLDR[5116]
modifications: reading uncertain; also: printed as Occ-ala-ala-Phe-Gly-Leu-Lys-Leu-Asp-Arg-5116
B4: JAL-0798 (peptide)
peptide: Octanoyl-AAFGLKLDR[1859]
modifications: not fully specified (some residues); printed as Occ-ala-ala-Phe-Gly-Leu-Lys-Leu-Asp-Arg-1859; reading uncertain
B5: JAL-0839 (peptide)
peptide: Octanoyl-AFGLKLDR-{1860″}
modifications: not fully specified (some residues); printed as Occ-ala-Phe-Gly-Leu-Lys-Leu-Asp-Arg-1860
B6: JAL-0841 (peptide)
peptide: Octanoyl-AFGLKLDR-5121
modifications: not fully specified (some residues); printed as Occ-ala-Phe-Gly-Leu-Lys-Leu-Asp-Arg-5121
B7: JAL-0824 (peptide)
peptide: Octanoyl-AAFGLKLDR[873]
modifications: not fully specified (some residues); printed as Occ-ala-ala-Phe-Gly-Leu-Lys-Leu-Asp-Arg-873; reading uncertain
B8: JAL-0834 (peptide)
peptide: Octanoyl-[ala][ala]FGLKLDR-5164
modifications: reading uncertain; also: printed as Occ-ala-ala-Phe-Gly-Leu-Lys-Leu-Asp-Arg-5164
B9: JAL-0801 (peptide)
peptide: Octanoyl-AAFGLKLDR[1906]
modifications: not fully specified (some residues); printed as Occ-ala-ala-Phe-Gly-Leu-Lys-Leu-Asp-Arg-1906; reading uncertain
B10: JAL-0833 (peptide)
peptide: Octanoyl-[ala][ala]FGLKLDR[5163]
modifications: reading uncertain; also: printed as Occ-ala-ala-Phe-Gly-Leu-Lys-Leu-Asp-Arg-5163
B11: JAL-0799 (peptide)
peptide: Octanoyl-AAFGLKLDR[1934]
modifications: not fully specified (some residues); printed as Occ-ala-ala-Phe-Gly-Leu-Lys-Leu-Asp-Arg-1934; reading uncertain
B12: JAL-0797 (peptide)
peptide: Octanoyl-AAFGLKLDR[Che]
modifications: not fully specified (some residues); printed as Occ-ala-ala-Phe-Gly-Leu-Lys-Leu-Asp-Arg-Che; reading uncertain
B13: JAL-0826 (peptide)
peptide: Octanoyl-[ala][ala]FGLKLDR[5119]
modifications: reading uncertain; also: printed as Occ-ala-ala-Phe-Gly-Leu-Lys-Leu-Asp-Arg-5119

Target: T1, natriuretic peptide receptor-B
Experiment: cell-based or functional assay

Binder | EC50 group, cGMP in GTM-3 cells [µM]
[Occ][Sni]FGLPLDRI-NH2 [JAL-0837] | ≤ 15
Octanoyl-[pro]FGLPLDRI-NH2 (reading uncertain; also: printed as Occ-pro-Phe-Gly-Leu-Pro-Leu-Asp-Arg-Ile-NH2) [JAL-0836] | ≤ 15
B1 | ≤ 15
B2 | ≤ 15
B3 | ≤ 15
B4 | ≤ 15
B5 | ≤ 5
B6 | ≤ 15
B7 | ≤ 15
B8 | ≤ 15
B9 | ≤ 5
B10 | ≤ 15
B11 | ≤ 5
B12 | ≤ 5
Octanoyl-[ala]FGLPLDRI-NH2 (reading uncertain; also: printed as Occ-ala-Phe-Gly-Leu-Pro-Leu-Asp-Arg-Ile-NH2) [JAL-0835] | ≤ 15
B13 | ≤ 5

Target: T1, natriuretic peptide receptor-B
Experiment: cell-based or functional assay
Remark: another data set of the same source

Binder | EC50, cyclic GMP production in GTM-3 cells [µM] | Emax, cyclic GMP production in GTM-3 cells [%]
MCHFGGRMDRISCYR [mini-ANP] | > 45 | 0
GLSKGCFGLKLDRIGSMSGLGC (ligand, disulfide 6-22 (inferred)) [C-type natriuretic peptide] | 0.0388 | 100
SLRRSSCFGGRMDRIGAQSGLGCNSFRY (ligand, disulfide 7-23 (inferred)) [atrial natriuretic peptide] | 1.63 | 15

Target: T2, natriuretic peptide receptor-A
Experiment: cell-based or functional assay

Binder | EC50, cyclic GMP production in NPR-A transfected 293-T cells [µM]
MCHFGGRMDRISCYR [mini-ANP] | 1.54
GLSKGCFGLKLDRIGSMSGLGC (ligand, disulfide 6-22 (inferred)) [C-type natriuretic peptide] | 1.6
